# Experimental data published in the Human Domainome abundance scans (Beltran et al. 2025).
# ± gives the uncertainty stated by the source.
# B1: Nuclear receptor subfamily 1 group D member 2, residues 103 to 171; numbered along this chain, Q14995 (parent)
# chain: CKVCGDVASGFHYGVHACEGCKGFFRRSIQQNIQYKKCLKNENCSIMRMNRNRCQQCRFKKCLSVGMSR
# Variants of: B1
# Assay: abundance fitness (aPCA) (normalised: wild type 0, dead -1); higher = more abundant; growth selection in yeast, the domain comes from the species named
# Conditions: Homo sapiens
row,Variant,abundance fitness
1,CKVCGDLASGFHYGVHACEGCKGFFRRSIQQNIQYKKCLKNENCSIMRMNRNRCQQCRFKKCLSVGMSR [V7L],-0.119 ± 0.075
2,CKVCGDAASGFHYGVHACEGCKGFFRRSIQQNIQYKKCLKNENCSIMRMNRNRCQQCRFKKCLSVGMSR [V7A],-0.153 ± 0.1
3,CKVCGDFASGFHYGVHACEGCKGFFRRSIQQNIQYKKCLKNENCSIMRMNRNRCQQCRFKKCLSVGMSR [V7F],-0.061 ± 0.17
4,CKVCGDMASGFHYGVHACEGCKGFFRRSIQQNIQYKKCLKNENCSIMRMNRNRCQQCRFKKCLSVGMSR [V7M],-0.032 ± 0.1
5,CKVCGDPASGFHYGVHACEGCKGFFRRSIQQNIQYKKCLKNENCSIMRMNRNRCQQCRFKKCLSVGMSR [V7P],-0.295 ± 0.12
6,CKVCGDQASGFHYGVHACEGCKGFFRRSIQQNIQYKKCLKNENCSIMRMNRNRCQQCRFKKCLSVGMSR [V7Q],0.118 ± 0.11
7,CKVCGDNASGFHYGVHACEGCKGFFRRSIQQNIQYKKCLKNENCSIMRMNRNRCQQCRFKKCLSVGMSR [V7N],-0.019 ± 0.24
8,CKVCGDSASGFHYGVHACEGCKGFFRRSIQQNIQYKKCLKNENCSIMRMNRNRCQQCRFKKCLSVGMSR [V7S],-0.083 ± 0.075
9,CKVCGDKASGFHYGVHACEGCKGFFRRSIQQNIQYKKCLKNENCSIMRMNRNRCQQCRFKKCLSVGMSR [V7K],0.167 ± 0.093
10,CKVCGDWASGFHYGVHACEGCKGFFRRSIQQNIQYKKCLKNENCSIMRMNRNRCQQCRFKKCLSVGMSR [V7W],-0.195 ± 0.12
11,CKVCGDGASGFHYGVHACEGCKGFFRRSIQQNIQYKKCLKNENCSIMRMNRNRCQQCRFKKCLSVGMSR [V7G],-0.469 ± 0.088
12,CKVCGDDASGFHYGVHACEGCKGFFRRSIQQNIQYKKCLKNENCSIMRMNRNRCQQCRFKKCLSVGMSR [V7D],-0.001 ± 0.15
13,CKVCGDTASGFHYGVHACEGCKGFFRRSIQQNIQYKKCLKNENCSIMRMNRNRCQQCRFKKCLSVGMSR [V7T],-0.126 ± 0.11
14,CKVCGDCASGFHYGVHACEGCKGFFRRSIQQNIQYKKCLKNENCSIMRMNRNRCQQCRFKKCLSVGMSR [V7C],-0.526 ± 0.29
15,CKVCGDRASGFHYGVHACEGCKGFFRRSIQQNIQYKKCLKNENCSIMRMNRNRCQQCRFKKCLSVGMSR [V7R],0.032 ± 0.061
16,CKVCGDEASGFHYGVHACEGCKGFFRRSIQQNIQYKKCLKNENCSIMRMNRNRCQQCRFKKCLSVGMSR [V7E],0.057 ± 0.084
17,CKVSGDVASGFHYGVHACEGCKGFFRRSIQQNIQYKKCLKNENCSIMRMNRNRCQQCRFKKCLSVGMSR [C4S],-0.819 ± 0.21
18,CKVEGDVASGFHYGVHACEGCKGFFRRSIQQNIQYKKCLKNENCSIMRMNRNRCQQCRFKKCLSVGMSR [C4E],-0.687 ± 0.26
19,CKVGGDVASGFHYGVHACEGCKGFFRRSIQQNIQYKKCLKNENCSIMRMNRNRCQQCRFKKCLSVGMSR [C4G],-0.795 ± 0.19
20,CKVWGDVASGFHYGVHACEGCKGFFRRSIQQNIQYKKCLKNENCSIMRMNRNRCQQCRFKKCLSVGMSR [C4W],-0.83 ± 0.3
21,CKVLGDVASGFHYGVHACEGCKGFFRRSIQQNIQYKKCLKNENCSIMRMNRNRCQQCRFKKCLSVGMSR [C4L],-0.902 ± 0.17
22,CKVAGDVASGFHYGVHACEGCKGFFRRSIQQNIQYKKCLKNENCSIMRMNRNRCQQCRFKKCLSVGMSR [C4A],-0.949 ± 0.26
23,CKVVGDVASGFHYGVHACEGCKGFFRRSIQQNIQYKKCLKNENCSIMRMNRNRCQQCRFKKCLSVGMSR [C4V],-0.941 ± 0.26
24,CKVTGDVASGFHYGVHACEGCKGFFRRSIQQNIQYKKCLKNENCSIMRMNRNRCQQCRFKKCLSVGMSR [C4T],-0.599 ± 0.27
25,CKVCMDVASGFHYGVHACEGCKGFFRRSIQQNIQYKKCLKNENCSIMRMNRNRCQQCRFKKCLSVGMSR [G5M],-0.226 ± 0.11
26,CKVCYDVASGFHYGVHACEGCKGFFRRSIQQNIQYKKCLKNENCSIMRMNRNRCQQCRFKKCLSVGMSR [G5Y],-1.11 ± 0.31

row,Variant,abundance fitness
1,CKVCFDVASGFHYGVHACEGCKGFFRRSIQQNIQYKKCLKNENCSIMRMNRNRCQQCRFKKCLSVGMSR [G5F],-0.918 ± 0.2
2,CKVCRDVASGFHYGVHACEGCKGFFRRSIQQNIQYKKCLKNENCSIMRMNRNRCQQCRFKKCLSVGMSR [G5R],-0.824 ± 0.083
3,CKVCQDVASGFHYGVHACEGCKGFFRRSIQQNIQYKKCLKNENCSIMRMNRNRCQQCRFKKCLSVGMSR [G5Q],-0.476 ± 0.1
4,CKVCVDVASGFHYGVHACEGCKGFFRRSIQQNIQYKKCLKNENCSIMRMNRNRCQQCRFKKCLSVGMSR [G5V],-0.815 ± 0.11
5,CKVCEDVASGFHYGVHACEGCKGFFRRSIQQNIQYKKCLKNENCSIMRMNRNRCQQCRFKKCLSVGMSR [G5E],-0.605 ± 0.13
6,CKVCKDVASGFHYGVHACEGCKGFFRRSIQQNIQYKKCLKNENCSIMRMNRNRCQQCRFKKCLSVGMSR [G5K],-0.5 ± 0.11
7,CKVCLDVASGFHYGVHACEGCKGFFRRSIQQNIQYKKCLKNENCSIMRMNRNRCQQCRFKKCLSVGMSR [G5L],-0.787 ± 0.1
8,CKVCCDVASGFHYGVHACEGCKGFFRRSIQQNIQYKKCLKNENCSIMRMNRNRCQQCRFKKCLSVGMSR [G5C],-0.769 ± 0.18
9,CKVCWDVASGFHYGVHACEGCKGFFRRSIQQNIQYKKCLKNENCSIMRMNRNRCQQCRFKKCLSVGMSR [G5W],-0.684 ± 0.089
10,CKVCTDVASGFHYGVHACEGCKGFFRRSIQQNIQYKKCLKNENCSIMRMNRNRCQQCRFKKCLSVGMSR [G5T],-0.802 ± 0.13
11,CKVCHDVASGFHYGVHACEGCKGFFRRSIQQNIQYKKCLKNENCSIMRMNRNRCQQCRFKKCLSVGMSR [G5H],-0.623 ± 0.18
12,CKVCADVASGFHYGVHACEGCKGFFRRSIQQNIQYKKCLKNENCSIMRMNRNRCQQCRFKKCLSVGMSR [G5A],-0.621 ± 0.1
13,CKVCSDVASGFHYGVHACEGCKGFFRRSIQQNIQYKKCLKNENCSIMRMNRNRCQQCRFKKCLSVGMSR [G5S],-0.689 ± 0.097
14,CKVCIDVASGFHYGVHACEGCKGFFRRSIQQNIQYKKCLKNENCSIMRMNRNRCQQCRFKKCLSVGMSR [G5I],-0.83 ± 0.25
15,CKVCDDVASGFHYGVHACEGCKGFFRRSIQQNIQYKKCLKNENCSIMRMNRNRCQQCRFKKCLSVGMSR [G5D],-0.645 ± 0.18
16,CKVCPDVASGFHYGVHACEGCKGFFRRSIQQNIQYKKCLKNENCSIMRMNRNRCQQCRFKKCLSVGMSR [G5P],-0.598 ± 0.11
17,CKVCGDVCSGFHYGVHACEGCKGFFRRSIQQNIQYKKCLKNENCSIMRMNRNRCQQCRFKKCLSVGMSR [A8C],-0.494 ± 0.16
18,CKVCGDVLSGFHYGVHACEGCKGFFRRSIQQNIQYKKCLKNENCSIMRMNRNRCQQCRFKKCLSVGMSR [A8L],-0.998 ± 0.17
19,CKVCGDVGSGFHYGVHACEGCKGFFRRSIQQNIQYKKCLKNENCSIMRMNRNRCQQCRFKKCLSVGMSR [A8G],-0.597 ± 0.08
20,CKVCGDVDSGFHYGVHACEGCKGFFRRSIQQNIQYKKCLKNENCSIMRMNRNRCQQCRFKKCLSVGMSR [A8D],-0.724 ± 0.42
21,CKVCGDVFSGFHYGVHACEGCKGFFRRSIQQNIQYKKCLKNENCSIMRMNRNRCQQCRFKKCLSVGMSR [A8F],-0.855 ± 0.43
22,CKVCGDVKSGFHYGVHACEGCKGFFRRSIQQNIQYKKCLKNENCSIMRMNRNRCQQCRFKKCLSVGMSR [A8K],-0.42 ± 0.13
23,CYVCGDVASGFHYGVHACEGCKGFFRRSIQQNIQYKKCLKNENCSIMRMNRNRCQQCRFKKCLSVGMSR [K2Y],-0.7 ± 0.24
24,CTVCGDVASGFHYGVHACEGCKGFFRRSIQQNIQYKKCLKNENCSIMRMNRNRCQQCRFKKCLSVGMSR [K2T],-0.186 ± 0.1
25,CQVCGDVASGFHYGVHACEGCKGFFRRSIQQNIQYKKCLKNENCSIMRMNRNRCQQCRFKKCLSVGMSR [K2Q],-0.049 ± 0.14
26,CNVCGDVASGFHYGVHACEGCKGFFRRSIQQNIQYKKCLKNENCSIMRMNRNRCQQCRFKKCLSVGMSR [K2N],-0.011 ± 0.14

row,Variant,abundance fitness
1,CMVCGDVASGFHYGVHACEGCKGFFRRSIQQNIQYKKCLKNENCSIMRMNRNRCQQCRFKKCLSVGMSR [K2M],-0.401 ± 0.2
2,CVVCGDVASGFHYGVHACEGCKGFFRRSIQQNIQYKKCLKNENCSIMRMNRNRCQQCRFKKCLSVGMSR [K2V],-0.474 ± 0.1
3,CSVCGDVASGFHYGVHACEGCKGFFRRSIQQNIQYKKCLKNENCSIMRMNRNRCQQCRFKKCLSVGMSR [K2S],-0.336 ± 0.047
4,CWVCGDVASGFHYGVHACEGCKGFFRRSIQQNIQYKKCLKNENCSIMRMNRNRCQQCRFKKCLSVGMSR [K2W],-0.673 ± 0.21
5,CRVCGDVASGFHYGVHACEGCKGFFRRSIQQNIQYKKCLKNENCSIMRMNRNRCQQCRFKKCLSVGMSR [K2R],-0.029 ± 0.071
6,CKACGDVASGFHYGVHACEGCKGFFRRSIQQNIQYKKCLKNENCSIMRMNRNRCQQCRFKKCLSVGMSR [V3A],-0.74 ± 0.33
7,CKSCGDVASGFHYGVHACEGCKGFFRRSIQQNIQYKKCLKNENCSIMRMNRNRCQQCRFKKCLSVGMSR [V3S],-0.161 ± 0.46
8,CKICGDVASGFHYGVHACEGCKGFFRRSIQQNIQYKKCLKNENCSIMRMNRNRCQQCRFKKCLSVGMSR [V3I],-0.293 ± 0.27
9,CKRCGDVASGFHYGVHACEGCKGFFRRSIQQNIQYKKCLKNENCSIMRMNRNRCQQCRFKKCLSVGMSR [V3R],-1.25 ± 0.45
10,CKDCGDVASGFHYGVHACEGCKGFFRRSIQQNIQYKKCLKNENCSIMRMNRNRCQQCRFKKCLSVGMSR [V3D],-0.763 ± 0.45
11,CKECGDVASGFHYGVHACEGCKGFFRRSIQQNIQYKKCLKNENCSIMRMNRNRCQQCRFKKCLSVGMSR [V3E],-0.754 ± 0.28
12,CKNCGDVASGFHYGVHACEGCKGFFRRSIQQNIQYKKCLKNENCSIMRMNRNRCQQCRFKKCLSVGMSR [V3N],-0.78 ± 0.38
13,CKGCGDVASGFHYGVHACEGCKGFFRRSIQQNIQYKKCLKNENCSIMRMNRNRCQQCRFKKCLSVGMSR [V3G],-0.738 ± 0.22
14,CKVCGYVASGFHYGVHACEGCKGFFRRSIQQNIQYKKCLKNENCSIMRMNRNRCQQCRFKKCLSVGMSR [D6Y],-0.445 ± 0.35
15,CKVCGQVASGFHYGVHACEGCKGFFRRSIQQNIQYKKCLKNENCSIMRMNRNRCQQCRFKKCLSVGMSR [D6Q],-0.513 ± 0.2
16,CKVCGLVASGFHYGVHACEGCKGFFRRSIQQNIQYKKCLKNENCSIMRMNRNRCQQCRFKKCLSVGMSR [D6L],-0.572 ± 0.2
17,CKVCGSVASGFHYGVHACEGCKGFFRRSIQQNIQYKKCLKNENCSIMRMNRNRCQQCRFKKCLSVGMSR [D6S],-0.706 ± 0.45
18,CKVCGMVASGFHYGVHACEGCKGFFRRSIQQNIQYKKCLKNENCSIMRMNRNRCQQCRFKKCLSVGMSR [D6M],-0.345 ± 0.17
19,CKVCGTVASGFHYGVHACEGCKGFFRRSIQQNIQYKKCLKNENCSIMRMNRNRCQQCRFKKCLSVGMSR [D6T],-0.47 ± 0.11
20,CKVCGAVASGFHYGVHACEGCKGFFRRSIQQNIQYKKCLKNENCSIMRMNRNRCQQCRFKKCLSVGMSR [D6A],0.04 ± 0.13
21,CKVCGVVASGFHYGVHACEGCKGFFRRSIQQNIQYKKCLKNENCSIMRMNRNRCQQCRFKKCLSVGMSR [D6V],-0.56 ± 0.34
22,CKVCGGVASGFHYGVHACEGCKGFFRRSIQQNIQYKKCLKNENCSIMRMNRNRCQQCRFKKCLSVGMSR [D6G],-0.535 ± 0.34
23,CKVCGKVASGFHYGVHACEGCKGFFRRSIQQNIQYKKCLKNENCSIMRMNRNRCQQCRFKKCLSVGMSR [D6K],-0.862 ± 0.33
24,CKVCGEVASGFHYGVHACEGCKGFFRRSIQQNIQYKKCLKNENCSIMRMNRNRCQQCRFKKCLSVGMSR [D6E],-0.06 ± 0.21
25,CKVCGFVASGFHYGVHACEGCKGFFRRSIQQNIQYKKCLKNENCSIMRMNRNRCQQCRFKKCLSVGMSR [D6F],-0.694 ± 0.38
26,CKVCGRVASGFHYGVHACEGCKGFFRRSIQQNIQYKKCLKNENCSIMRMNRNRCQQCRFKKCLSVGMSR [D6R],-0.857 ± 0.26
